Among the data in patent publication US20180044434A1 are OD 490/630 nm values, retold here.

Assay [1] concerns the target T1, Ala mutant of TA0096, SEQ ID NO: 32.
T1 sequence (peptide): EENMDAQWMQDEMEIGY
The assay is described as follows: ELISA, coated peptide. Background: ELISA stands for enzyme-linked immunosorbent assay.

Assay [2] has as its target T2, Ala mutant having 3-amino acid substitution, SEQ ID NO: 46.
T2 sequence (peptide): EENMDDAAAQDEMEIGY
The assay is described as follows: ELISA, coated peptide.

In the case of “anti-dinitrophenyl (DNP) antibody (negative control)”, the OD 490/630 nm came out at 0.012 in assay [1] and 0.052 in assay [2].
